Key:
[1] = target: folate receptor-alpha (FR) (Homo sapiens, UniProt P15328); settings: background statement; cited from earlier work
[2] = Radiolytic stability of the radioconjugates (HPLC); type: physicochemical; settings: room temperature, PBS pH 7.4, 100 MBq/500 μL, relative to value at t0
Protocol: Radiolytic stability: After performing quality control of the radioconjugates (50 MBq/nmol) using HPLC (t0=0 h), the radioconjugates were diluted in PBS pH 7.4 to obtain an activity concentration of 100 MBq/500 μL. The radioconjugate dilutions were incubated at room temperature. The integrity of the radioconjugates was assessed after a 4 h and 24 h, respectively, using HPLC. The HPLC chromatograms were analyzed by determination of the peak area of the radiolabeled product, the released lutetium-177 as well as the degradation products of unknown structure. The quantity of the intact product was expressed as the percentage of the sum of integrated peak areas of the entire chromatogram and set into relation to the original value determined at to (radiochemical purity >95% set as 100%).

[3] = type: physicochemical; settings: pH 7.4
Protocol: The n-octanol/PBS distribution coefficients (log D values) were determined for each folate radioconjugate of the disclosure in order to assess their hydrophilic/hydrophobic properties. The log D values of the folate radioconjugates of the disclosure (50 MBq/nmol) were determined as previously reported, after dilution in PBS pH 7.4 to obtain an activity concentration of 10 MBq/500 μL. A sample of each radiofolate (ca. 0.5 MBq, 25 μL, 0.01 nmol) was added to a mixture of 1475 μL PBS pH 7.4 and 1500 μL n-octanol. The vials were vortexed vigorously for 1 min followed by centrifugation for 6 min at 2500 rpm for phase separation. An aliquot was taken from each phase and measured in a gamma-counter (Perkin Elmer, Wallac Wizard 1480). The distribution coefficients were calculated as the logarithm of the ratio of counts per minute (cpm) measured in the n-octanol phase relative to the cpm measured in the PBS phase. The results were listed as mean±SD of the data obtained from 3 independent experiments, each performed with five replicates.

human albumin = test system: T1, human albumin; assay: in vitro; type: in vitro ADME; settings: plasma
T1 construct: tissue Stiftung Blutspende SRK Aargau-Solothurn, Switzerland; host or cells: human blood plasma
Protocol: (§1) Albumin-binding properties were determined in mouse and human blood plasma. The albumin-binding properties of the folate radioconjugates of the disclosure in mouse blood plasma (Rockland Immunochemicals, Inc., USA) and human blood plasma (Stiftung Blutspende SRK Aargau-Solothurn, Switzerland) were determined using an ultrafiltration method (Deberle, L. M. et al., Molecules 2020, 25, (11)). The amount of serum albumin in mouse (MSA) and human (HSA) blood plasma was defined as 550 μM and 800 μM, respectively, based on measurements using a dry chemistry analyzer (DRI-CHEM 4000i, FUJIFILM, Japan). The folate radioconjugates of the disclosure (50 MBq/nmol, ca. 300 kBq, 0.006 nmol in 15 μL) were added to samples of mouse and human blood plasma (150 μL), followed by incubation of the samples at 37° C. for 30 min. The samples were loaded on Amicon centrifugal filters (cut-off of 10 kDa; Merck Millipore) followed by centrifugation (14,000 rcf, 30 min, 4° C.) to allow the separation of the plasma-bound from the plasma-unbound (free) fractions of each sample. The inserts of the filter devices were inverted and centrifuged at 200 rcf for 3 min to recover the protein-bound fraction. The activity of the protein-bound fraction as well as the activity in the filtrate and in the filter unit were measured separately in a gamma-counter (Perkin Elmer, Wallac Wizard 1480). The percentage of radioconjugate bound to mouse and human albumin, respectively, was set in relation to the total activity measured (Table 4).

mouse albumin = test system: T2, mouse albumin; assay: in vitro; type: in vitro ADME; settings: plasma
T2 construct: tissue Rockland Immunochemicals, Inc., USA; host or cells: mouse blood plasma
Protocol: as §1

[4] = target: T3, FR (folate receptor) on IGROV-1 cells (Homo sapiens, UniProt P15328); assay: FR-binding affinity (KD) on FR-positive IGROV-1 cells; settings: 1 h at 4° C., average of 3 experiments
T3 construct: FR-positive IGROV-1 cells (human ovarian carcinoma cell line); endogenous in cells; host or cells: IGROV-1 human ovarian carcinoma cells (provided by Dr. Gerrit Janssen, Free University Medical Center Amsterdam)
Protocol: The determination of the KD values was performed as previously reported (Deberle, L. M. et al; Bioconj Chem 2021, 32, p. 1617). FR-positive IGROV-1 cells (human ovarian carcinoma cell line, kindly provided by Dr. […] Janssen, Free University Medical Center Amsterdam, The Netherlands) were seeded in 48-well plates (2.5×10^5 cells/well) in 500 μL FFRPMI medium with supplements. The cells were incubated at 37° C. and 5% CO2 to allow cell adhesion overnight. The experiment was performed on ice using ice-cold medium and buffer solutions. After removal of the supernatant, the cells were rinsed once with PBS prior to the addition of FFRPMI medium without supplements (450 μL/well). The respective folate radioconjugate of the disclosure (20 MBq/nmol) was added to each well at variable concentrations (in the range of 0.1 to 500 nM, 50 μL per well). […] The IGROV-1 tumor cells were incubated for 1 h at 4° C. on a shaker, followed by removal of the supernatants and rinsing the cells twice with PBS. After lysis of the cells with NaOH solution (1 M, aq., 500 μL), the samples were counted for activity in a γ-counter (Wallac Wizard 1480, Perkin Elmer). The counts per minute (cpm) of the specific binding (determined by subtracting the cpm of the unspecific binding from the cpm of total binding), were plotted against the molar concentration of the added folate radioconjugates of the disclosure. […]

T3 sequence (P15328 25-234): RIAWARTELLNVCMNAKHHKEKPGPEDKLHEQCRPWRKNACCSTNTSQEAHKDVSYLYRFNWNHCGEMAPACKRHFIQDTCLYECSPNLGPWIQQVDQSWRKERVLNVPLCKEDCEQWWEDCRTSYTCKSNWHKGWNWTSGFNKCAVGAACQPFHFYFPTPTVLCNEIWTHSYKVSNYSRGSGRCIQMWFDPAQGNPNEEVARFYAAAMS
Chain of folate receptor-alpha (FR) (P15328 25-234, species assumed): as the sequence (P15328 25-234) above

SMILES	FR affinity (KD) [1]	Intact radiolabeled product [%] ([2]; 4 h)	Intact radiolabeled product [%] ([2]; 24 h)	logD [3]	fraction unbound at 30 min, 0.036 µM (human albumin)	fraction unbound at 30 min, 0.036 µM (mouse albumin)	Kd [4] [nM]
CN1c2c(nc(N)[nH]c2=O)NCC1CNc1ccc(C(=O)N[C@@H](CCC(=O)O)C(=O)O)cc1 (stereo partly shown) [5-methyltetrahydrofolic acid]	nanomolar range	–	–	–	–	–	–
CN1c2c(nc(N)[nH]c2=O)NC[C@H]1CNc1ccc(C(=O)N[C@@H](CCC(=O)N[C@@H](CCCCNC(=O)CN2CCN(CC(=O)O)CCN(CC(=O)O)CCN(CC(=O)O)CC2)C(=O)N[C@@H](CCCCNC(=O)CCCCc2ccc(I)cc2)C(=O)O)C(=O)O)cc1 [[^177Lu]Lu-6R-RedFol-24, metal not drawn]	–	≥99	≥99	-3.5 ± 0.2	0.06	0.27	5.6
CN1c2c(nc(N)[nH]c2=O)NC[C@@H]1CNc1ccc(C(=O)N[C@@H](CCC(=O)N[C@@H](CCCCNC(=O)CN2CCN(CC(=O)O)CCN(CC(=O)O)CCN(CC(=O)O)CC2)C(=O)N[C@@H](CCCCNC(=O)CCCCc2ccc(I)cc2)C(=O)O)C(=O)O)cc1 [[^177Lu]Lu-6S-RedFol-24, metal not drawn]	–	≥99	≥99	-3.1 ± 0.1	0.14	0.26	4.6

From patent publication US20250127938A1, “THERAGNOSTIC FOLATE CONJUGATES” (Merck Patent GmbH, priority 2022, published 2025)
